Results on nine molecules are retold here after publication PMC11574045, “A cofactor-induced repressive type of transcription factor condensation can be induced by synthetic peptides to suppress tumorigenesis” (The EMBO Journal, 2024).

The chains are these.
B1: RSF1 (protein, UniProt Q96T23 1-1441, looked up)
Remodeling and spacing factor …: MATAAAAAAVMAPPGCPGSCPNFAVVCSFLERYGPLLDLPELPFPELERVLQAPPPDVGNGEVPKELVELHLKLMRKIGKSVTADRWEKYLIKICQEFNSTWAWEMEKKGYLEMSVECKLALLKYLCECQFDDNLKFKNIINEEDADTMRLQPIGRDKDGLMYWYQLDQDHNVRMYIEEQDDQDGSSWKCIVRNRNELAETLALLKAQIDPVLLKNSSQQDNSSRESPSLEDEETKKEEETPKQEEQKESEKMKSEEQPMDLENRSTANVLEETTVKKEKEDEKELVKLPVIVKLEKPLPENEEKKIIKEESDSFKENVKPIKVEVKECRADPKDTKSSMEKPVAQEPERIEFGGNIKSSHEITEKSTEETEKLKNDQQAKIPLKKREIKLSDDFDSPVKGPLCKSVTPTKEFLKDEIKQEEETCKRISTITALGHEGKQLVNGEVSDERVAPNFKTEPIETKFYETKEESYSPSKDRNIITEGNGTESLNSVITSMKTGELEKETAPLRKDADSSISVLEIHSQKAQIEEPDPPEMETSLDSSEMAKDLSSKTALSSTESCTMKGEEKSPKTKKDKRPPILECLEKLEKSKKTFLDKDAQRLSPIPEEVPKSTLESEKPGSPEAAETSPPSNIIDHCEKLASEKEVVECQSTSTVGGQSVKKVDLETLKEDSEFTKVEMDNLDNAQTSGIEEPSETKGSMQKSKFKYKLVPEEETTASENTEITSERQKEGIKLTIRISSRKKKPDSPPKVLEPENKQEKTEKEEEKTNVGRTLRRSPRISRPTAKVAEIRDQKADKKRGEGEDEVEEESTALQKTDKKEILKKSEKDTNSKVSKVKPKGKVRWTGSRTRGRWKYSSNDESEGSGSEKSSAASEEEEEKESEEAILADDDEPCKKCGLPNHPELILLCDSCDSGYHTACLRPPLMIIPDGEWFCPPCQHKLLCEKLEEQLQDLDVALKKKERAERRKERLVYVGISIENIIPPQEPDFSEDQEEKKKDSKKSKANLLERRSTRTRKCISYRFDEFDEAIDEAIEDDIKEADGGGVGRGKDISTITGHRGKDISTILDEERKENKRPQRAAAARRKKRRRLNDLDSDSNLDEEESEDEFKISDGSQDEFVVSDENPDESEEDPPSNDDSDTDFCSRRLRRHPSRPMRQSRRLRRKTPKKKYSDDDEEEESEENSRDSESDFSDDFSDDFVETRRRRSRRNQKRQINYKEDSESDGSQKSLRRGKEIRRVHKRRLSSSESEESYLSKNSEDDELAKESKRSVRKRGRSTDEYSEADEEEEEEEGKPSRKRLHRIETDEEESCDNAHGDANQPARDSQPRVLPSEQESTKKPYRIESDEEEDFENVGKVGSPLDYSLVDLPSTNGQSPGKAIENLIGKPTEKSQTPKDNSTASASLASNGTSGGQEAGAPEEEEDELLRVTDLVDYVCNSEQL
B2: SCAND1 (protein, UniProt P57086 1-179, looked up)
SCAN domain-containing …: MAATEPILAATGSPAAVPPEKLEGAGSSSAPERNCVGSSLPEASPPAPEPSSPNAAVPEAIPTPRAAASAALELPLGPAPVSVAPQAEAEARSTPGPAGSRLGPETFRQRFRQFRYQDAAGPREAFRQLRELSRQWLRPDIRTKEQIVEMLVQEQLLAILPEAARARRIRRRTDVRITG
B3: RYBP (protein, UniProt Q8N488 1-228, looked up)
RING1 and YY1-binding protein: MTMGDKKSPTRPKRQAKPAADEGFWDCSVCTFRNSAEAFKCSICDVRKGTSTRKPRINSQLVAQQVAQQYATPPPPKKEKKEKVEKQDKEKPEKDKEISPSVTKKNTNKKTKPKSDILKDPPSEANSIQSANATTKTSETNHTSRPRLKNVDRSTAQQLAVTVGNVTVIITDFKEKTRSSSTSSSTVTSSAGSEQQNQSSSGSESTDKGSSRSSTPKGDMSAVNDESF
B4: RXRA (protein, UniProt P19793 1-462, looked up)
Retinoic acid receptor …: MDTKHFLPLDFSTQVNSSLTSPTGRGSMAAPSLHPSLGPGIGSPGQLHSPISTLSSPINGMGPPFSVISSPMGPHSMSVPTTPTLGFSTGSPQLSSPMNPVSSSEDIKPPLGLNGVLKVPAHPSGNMASFTKHICAICGDRSSGKHYGVYSCEGCKGFFKRTVRKDLTYTCRDNKDCLIDKRQRNRCQYCRYQKCLAMGMKREAVQEERQRGKDRNENEVESTSSANEDMPVERILEAELAVEPKTETYVEANMGLNPSSPNDPVTNICQAADKQLFTLVEWAKRIPHFSELPLDDQVILLRAGWNELLIASFSHRSIAVKDGILLATGLHVHRNSAHSAGVGAIFDRVLTELVSKMRDMQMDKTELGCLRAIVLFNPDSKGLSNPAEVEALREKVYASLEAYCKHKYPEQPGRFAKLLLRLPALRSIGLKCLEHLFFFKLIGDTPIDTFLMEMLEAPHQMT
B5: SCRT1 (protein, UniProt Q99M85 1-348, looked up)
Transcriptional repressor …: MPRSFLVKKVKLDTFSSADLDSSYGRARSDLGVRLQDKGYLSDYVGPASVYDGDAEAALLKGPSPEPMYAAAVRGELGPAASGSAPPPTPRPELATAAGGYINGDAAVSEGYAADAFFITDGRSRRKAANANAAAAPSTASVAAPDSDAGGGGGPGTRGSGSGSASRGGTRVGAGTEARAGSGATGAGGRHACGECGKTYATSSNLSRHKQTHRSLDSQLARRCPTCGKVYVSMPAMAMHLLTHDLRHKCGVCGKAFSRPWLLQGHMRSHTGEKPFGCAHCGKAFADRSNLRAHMQTHSAFKHFQCKRCKKSFALKSYLNKHYESACFKGGASGPATPAPPQLSPVQA
B6: SALL1 (protein, UniProt Q9NSC2 1-1324, looked up)
Sal-like protein 1: MSRRKQAKPQHFQSDPEVASLPRRDGDTEKGQPSRPTKSKDAHVCGRCCAEFFELSDLLLHKKNCTKNQLVLIVNENPASPPETFSPSPPPDNPDEQMNDTVNKTDQVDCSDLSEHNGLDREESMEVEAPVANKSGSGTSSGSHSSTAPSSSSSSSSSSGGGGSSSTGTSAITTSLPQLGDLTTLGNFSVINSNVIIENLQSTKVAVAQFSQEARCGGASGGKLAVPALMEQLLALQQQQIHQLQLIEQIRHQILLLASQNADLPTSSSPSQGTLRTSANPLSTLSSHLSQQLAAAAGLAQSLASQSASISGVKQLPPIQLPQSSSGNTIIPSNSGSSPNMNILAAAVTTPSSEKVASSAGASHVSNPAVSSSSSPAFAISSLLSPASNPLLPQQASANSVFPSPLPNIGTTAEDLNSLSALAQQRKSKPPNVTAFEAKSTSDEAFFKHKCRFCAKVFGSDSALQIHLRSHTGERPFKCNICGNRFSTKGNLKVHFQRHKEKYPHIQMNPYPVPEHLDNIPTSTGIPYGMSIPPEKPVTSWLDTKPVLPTLTTSVGLPLPPTLPSLIPFIKTEEPAPIPISHSATSPPGSVKSDSGGPESATRNLGGLPEEAEGSTLPPSGGKSEESGMVTNSVPTASSSVLSSPAADCGPAGSATTFTNPLLPLMSEQFKAKFPFGGLLDSAQASETSKLQQLVENIDKKATDPNECIICHRVLSCQSALKMHYRTHTGERPFKCKICGRAFTTKGNLKTHYSVHRAMPPLRVQHSCPICQKKFTNAVVLQQHIRMHMGGQIPNTPVPDSYSESMESDTGSFDEKNFDDLDNFSDENMEDCPEGSIPDTPKSADASQDSLSSSPLPLEMSSIAALENQMKMINAGLAEQLQASLKSVENGSIEGDVLTNDSSSVGGDMESQSAGSPAISESTSSMQALSPSNSTQEFHKSPSIEEKPQRAVPSEFANGLSPTPVNGGALDLTSSHAEKIIKEDSLGILFPFRDRGKFKNTACDICGKTFACQSALDIHYRSHTKERPFICTVCNRGFSTKGNLKQHMLTHQMRDLPSQLFEPSSNLGPNQNSAVIPANSLSSLIKTEVNGFVHVSPQDSKDTPTSHVPSGPLSSSATSPVLLPALPRRTPKQHYCNTCGKTFSSSSALQIHERTHTGEKPFACTICGRAFTTKGNLKVHMGTHMWNSTPARRGRRLSVDGPMTFLGGNPVKFPEMFQKDLAARSGSGDPSSFWNQYAAALSNGLAMKANEISVIQNGGIPPIPGSLGSGNSSPVSGLTGNLERLQNSEPNAPLAGLEKMASSENGTNFRFTRFVEDSKEIVTS
B7: RXRG (protein, UniProt P48443 1-463, looked up)
Retinoic acid receptor …: MYGNYSHFMKFPAGYGGSPGHTGSTSMSPSAALSTGKPMDSHPSYTDTPVSAPRTLSAVGTPLNALGSPYRVITSAMGPPSGALAAPPGINLVAPPSSQLNVVNSVSSSEDIKPLPGLPGIGNMNYPSTSPGSLVKHICAICGDRSSGKHYGVYSCEGCKGFFKRTIRKDLIYTCRDNKDCLIDKRQRNRCQYCRYQKCLVMGMKREAVQEERQRSRERAESEAECATSGHEDMPVERILEAELAVEPKTESYGDMNMENSTNDPVTNICHAADKQLFTLVEWAKRIPHFSDLTLEDQVILLRAGWNELLIASFSHRSVSVQDGILLATGLHVHRSSAHSAGVGSIFDRVLTELVSKMKDMQMDKSELGCLRAIVLFNPDAKGLSNPSEVETLREKVYATLEAYTKQKYPEQPGRFAKLLLRLPALRSIGLKCLEHLFFFKLIGDTPIDTFLMEMLETPLQIT
B8: BBX (protein, UniProt Q8WY36 1-941, looked up)
HMG box transcription factor …: MKGSNRNKDHSAEGEGVGKRPKRKCLQWHPLLAKKLLDFSEEEEEEDEEEDIDKVQLLGADGLEQDVGETEDDESPEQRARRPMNAFLLFCKRHRSLVRQEHPRLDNRGATKILADWWAVLDPKEKQKYTDMAKEYKDAFMKANPGYKWCPTTNKPVKSPTPTVNPRKKLWAFPSDSSRDLPSPKKAKTEEMPQLNFGMADPTQMGGLSMLLLAGEHALGTPEVSSGTCRPDVSESPELRQKSPLFQFAEISSSTSHSDASTKQCQTSALFQFAEISSNTSQLGGAEPVKRCGKSALFQLAEMCLASEGMKMEESKLIKAKESDGGRIKELEKGKEEKEIKMEKTDETRLQKEAEFEKSAKENLRDSKELRNFEALQIDDIMAIKMEDPKEIRKEELEEDHKCSHFPDFSYSASSKIIISDVPSRKDHMCHPHGIMIIEDPAALNKPEKLKKKKKKSKMDRHGNDKSTPKKTCKKRQSSESDIESVIYTIEAVAKGDWGIEKLGDTPRKKVRTSSSGKGSILDAKPPKKKVKSREKKMSKEKSSDTTKESRPPDFISISASKNISGETPEGIKAEPLTPMEDALPPSLSGQAKPEDSDCHRKIETCGSRKSERSCKGALYKTLVSEGMLTSLRANVDRGKRSSGKGNSSDHEGCWNEESWTFSQSGTSGSKKFKKTKPKEDCLLGSAKLDEEFEKKFNSLPQYSPVTFDRKCVPVPRKKKKTGNVSSEPTKTSKGPFQSQKKNLFHKIVSKYKHKKEKPNVPEKGSGDKWSNKQLFLDAIHPTEAIFSEDRNTMEPVHKVKNIPSIFNTPEPTTTQEPLVGSQKRKARKTKITHLVRTADGRVSPAGGTLDDKPKEQLQRSLPKATETDCNDKCSHNTEVGETRSSTPEMPAVSAFFSLAALAEVAAMENVHRGQRSTPLTHDGQPKEMPQAPVLISCADQ
B9: RUNX3 (protein, UniProt Q13761 1-415, looked up)
Runt-related transcription …: MRIPVDPSTSRRFTPPSPAFPCGGGGGKMGENSGALSAQAAVGPGGRARPEVRSMVDVLADHAGELVRTDSPNFLCSVLPSHWRCNKTLPVAFKVVALGDVPDGTVVTVMAGNDENYSAELRNASAVMKNQVARFNDLRFVGRSGRGKSFTLTITVFTNPTQVATYHRAIKVTVDGPREPRRHRQKLEDQTKPFPDRFGDLERLRMRVTPSTPSPRGSLSTTSHFSSQPQTPIQGTSELNPFSDPRQFDRSFPTLPTLTESRFPDPRMHYPGAMSAAFPYSATPSGTSISSLSVAGMPATSRFHHTYLPPPYPGAPQNQSGPFQANPSPYHLYYGTSSGSYQFSMVAGSSSGGDRSPTRMLASCTSSAASVAAGNLMNPSLGGQSDGVEADGSHSNSPTALSTPGRMDEAVWRPY

The experiment deals with HEK293FT cells transfected with TF library. As to the kind of experiment: Screening of TF condensates based on fluorescent puncta. The format is cell-based. To be noted: Figure 1B numerical data; TF library screen, one value per transcriptional factor. In outline:
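HEK293FT cells were reverse-transfected with Flag- or GAL4-tagged TF plasmids (1.6 μg/ml, PEI). After 60 h, cells were cultured 12 h with or without glucose, then fixed and immunostained with anti-Flag or anti-GAL4 and Alexa 488 secondaries. Fluorescent puncta were imaged over fifty random fields per well by high-content imaging.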
B1: the “Z score of condensed fraction” value was -1.08.

Regarding B2, the “Z score of condensed fraction” value is reported as -0.8992.

As for B3, the “Z score of condensed fraction” value is -0.5834.

Turning to B4, the “Z score of condensed fraction” value was -0.874.

Turning to B5, the “Z score of condensed fraction” value was 0.5906.

Turning to B6, the “Z score of condensed fraction” value is -0.9814.

B7: the “Z score of condensed fraction” value is listed as 0.0107.

For the molecule B8, the “Z score of condensed fraction” value was 1.56.

Take B9: the “Z score of condensed fraction” value is on record as -0.4732.
